Publication PMC11725853 (Proceedings of the National Academy of Sciences of the …, 2024)

Columns and labels:
[1] = biological target: trypsin-activated PDE6 from mouse retina extracts (mouse (endogenous in retina)) (UniProt P27664); test: inhibition of enzyme activity
[2] = biological target: trypsin-activated PDE6 isolated from bovine rod outer segment membranes (bovine) (UniProt P11541); test: inhibition of enzyme activity
mass photometry = biological target: the molecule itself; test: mass photometry

Sequence of synthetic peptide of the C-terminus of Pγc, Pγc-59-83 (Q13956 59-83): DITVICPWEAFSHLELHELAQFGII
Sequence of full-length Pγc (isolated protein used in PDE6 activity assays) (Q13956 whole entry): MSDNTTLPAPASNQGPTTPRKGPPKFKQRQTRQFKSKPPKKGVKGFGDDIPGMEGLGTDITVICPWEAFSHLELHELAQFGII
Sequence of full-length Pγr (isolated protein used in PDE6 activity assays) (P18545 whole entry): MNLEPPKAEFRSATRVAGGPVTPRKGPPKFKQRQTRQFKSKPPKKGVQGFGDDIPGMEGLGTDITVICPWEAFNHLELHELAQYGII
Sequence of synthetic peptide of the 25 C-terminal residues of Pγr, Pγr-63-87 (P18545 63-87): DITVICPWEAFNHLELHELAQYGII

Molecule | Ki [1] [nM] | Ki [2] [nM] | other results
synthetic peptide of the C-terminus of Pγc, Pγc-59-83 (from UniProt Q13956 59-83) | 8200 | – | –
full-length Pγc (isolated protein used in PDE6 activity assays) (from UniProt Q13956 1-83) (natural protein) | – | 0.0755 | –
full-length Pγr (isolated protein used in PDE6 activity assays) (from UniProt P18545 1-87) (natural protein) | – | 0.0294 | –
synthetic peptide of the 25 C-terminal residues of Pγr, Pγr-63-87 (from UniProt P18545 63-87) | 2500 | – | –
human cone cGMP-phosphodiesterase PDE6C catalytic subunit (residues 2-830), catalytic homodimer of holoPDE6C (enzyme, UniProt P51160 2-830, looked up) GEINQVAVEKYLEENPQFAKEYFDRKLRVEVLGEIFKNSQVPVQSSMSFSELTQVEESALCLELLWTVQEEGGTPEQGVHRALQRLAHLLQADRCSMFLCRSRNGIPEVASRLLDVTPTSKFEDNLVGPDKEVVFPLDIGIVGWAAHTKKTHNVPDVKKNSHFSDFMDKQTGYVTKNLLATPIVVGKEVLAVIMAVNKVNASEFSKQDEEVFSKYLNFVSIILRLHHTSYMYNIESRRSQILMWSANKVFEELTDVERQFHKALYTVRSYLNCERYSIGLLDMTKEKEFYDEWPIKLGEVEPYKGPKTPDGREVNFYKIIDYILHGKEEIKVIPTPPADHWTLISGLPTYVAENGFICNMMNAPADEYFTFQKGPVDETGWVIKNVLSLPIVNKKEDIVGVATFYNRKDGKPFDEHDEYITETLTQFLGWSLLNTDTYDKMNKLENRKDIAQEMLMNQTKATPEEIKSILKFQEKLNVDVIDDCEEKQLVAILKEDLPDPRSAELYEFRFSDFPLTEHGLIKCGIRLFFEINVVEKFKVPVEVLTRWMYTVRKGYRAVTYHNWRHGFNVGQTMFTLLMTGRLKKYYTDLEAFAMLAAAFCHDIDHRGTNNLYQMKSTSPLARLHGSSILERHHLEYSKTLLQDESLNIFQNLNKRQFETVIHLFEVAIIATDLALYFKKRTMFQKIVDACEQMQTEEEAIKYVTVDPTKKEIIMAMMMTACDLSAITKPWEVQSQVALMVANEFWEQGDLERTVLQQQPIPMMDRNKRDELPKLQVGFIDFVCTFVYKEFSRFHKEITPMLSGLQNNRVEWKSLADEYDAKMKVIEEEA | – | – | stoichiometry N (mass photometry): 2
